# Marks after values point to notes of the source that are not given here.
# Legend:
# [1] = tested on: mice; experiment: Forced swimming test (FST), anti-anxiety and stress effects; type: in vivo
# Description: The anti-anxiety and stress effects of the Ziptamin product were investigated in mice using the forced swim test as reported in Porsolt, et al. (5). Healthy female mice, after acclimatization, were randomly divided into 4 groups, each group consisting of 6 mice, specifically: • Group 1 (Disease control): Mice were administered distilled water; • Group 2 (Control): Mice were administered fluoxetine at a dose of 6.5 mg/kg; • Group 3 (Test sample): Mice were administered Ziptamin at a dose of 25 ml/kg, divided into 2 doses/day 4 hours apart; • Group 4 (Test sample): Mice were administered Ziptamin at a dose of 50 ml/kg, divided into 2 doses/day 4 hours apart.
# Mice were administered distilled water or fluoxetine at a volume of 10 ml/kg once a day or Ziptamin at doses of 25 ml/kg and 50 ml/kg for 7 consecutive days, divided into 2 doses/day, with a 4-hour interval between doses. On day 7, 60 minutes after administering distilled water, fluoxetine, or Ziptamin, mice were placed in a cylindrical glass tube (diameter 20 cm, height 50 cm) containing water at a temperature of 23-25° C. and a depth of 20 cm for 6 minutes. Initially, the mice struggled to escape the water, but then gradually adapted and performed only the necessary movements to keep their heads above water (immobility state). Filming lasted for 6 minutes, including 1 minute for the mice to stabilize and adapt, and the remaining 5 minutes to record the movements and behavior of the mice in the water, including swimming time (mice moving their limbs in the water as if rowing in the center of the cylinder), struggling (front limbs moving quickly and strongly in or above the water, with a tendency to swim and hit the front limbs against the walls of the cylinder), and immobility (ceasing to struggle, only performing necessary movements to keep the head afloat) (FIG. 1). The test sample reduced anxiety and stress, decreasing immobility time and increasing swimming and struggling time in the test mice. After 6 minutes, the mice were removed from the water and dried to prevent hypothermia. Results are presented as mean values±SEM (standard error of the mean). Differences between groups were analyzed using the Kruskal-Wallis test and Mann-Whitney test with SPSS 26.0 software. A statistical significance is considered when the p-value is <0.05.
# [2] = tested on: mice with immunosuppression induced by cyclophosphamide; experiment: Immune stimulatory effects on mice with immunosuppression induced by cyclophosphamide; type: in vivo; details: for Body weight: CYP 150 mg/kg i.p. day 1
# Description: The adult human dosage of Ziptamin is 0.5-1 bottle/day×250 ml/bottle A normal adult weighs about 60 kg→Mouse dose of Ziptamin: Dmouse=(0.5*250*11.76)/60=25 ml/kg and Dmouse=(1*250*11.76)/60=50 ml/kg. The dose conversion factor from adults to mice is 11.76 according to the Guidelines for preclinical and clinical testing of traditional medicine, herbal medicine issued by the Department of Science, Technology and Training-Ministry of Health under Decision No. 141/QD-K2DT dated 27 Oct. 2015.
# Healthy male mice, after stable housing, were randomly divided into 5 groups, each with 8 mice: • Group 1 (Physiological): Mice were given distilled water; • Group 2 (Disease control): Mice were given distilled water; • Group 3 (Control): Mice were injected […] with filgrastim at a dose of 50 μg/kg; • Group 4 (Test group): Mice were given Ziptamin at a dose of 25 ml/kg, divided into 2 doses/day 4 hours apart; • Group 5 (Test group): Mice were given Ziptamin at a dose of 50 ml/kg, divided into 2 doses/day 4 hours apart; • Group 1 (physiological) were injected intraperitoneally with 0.9% NaCl, volume 10 ml/kg. Mice from groups 2 to 5 were injected intraperitoneally with CYP (dissolved in 0.9% NaCl) at a single dose of 150 mg/kg on day 1, injection volume 10 ml/kg. Mice in group 3 were subcutaneously injected with filgrastim (dissolved in 5% glucose), dose 50 μg/kg, once a day, from day 2 to day 4, the first dose 24 hours after CYP injection. Mice in groups 4 and 5 were given Ziptamin at doses of 25 ml/kg and 50 ml/kg from day 1 to day 4, divided into 2 doses/day, 4 hours apart between doses. Mice in the test groups were recorded for weight daily before administering distilled water, test sample, or medication. On day 4, one hour after the filgrastim injection or Ziptamin administration, mice were euthanized with CO2 gas, blood was collected from the heart to determine the leukocyte formula at Medlatec clinic; spleen and thymus were collected, rinsed with cold 0.9% NaCl, dried, weighed, and the relative organ mass was determined using the formula:
# [formula] • Where: • Porgan: organ weight (g) • Pbody: body weight (g)
# Results are presented as mean±SEM (standard error of mean). Differences between groups were analyzed using Kruskal-Wallis and Mann-Whitney tests with SPSS 26.0 software. A difference was considered statistically significant when the p-value <0.05.
# [3] = fluoxetine 6.5 mg/kg once a day, 7 days, female mice, n = 6, 5 minutes recorded
# [4] = filgrastim 50 μg/kg day 2 to day 4, CYP 150 mg/kg, blood day 4, n = 8
# [5] = filgrastim 50 μg/kg day 2 to day 4, CYP 150 mg/kg, day 4, n = 8
molecule,measurement,setting,value
"CNCCC(Oc1ccc(C(F)(F)F)cc1)c1ccccc1 (stereo not drawn) [Fluoxetin, fluoxetine]",Time Immobility,[1]; [3],53.17 ± 29.27 s
same,Time Struggling,[1]; [3],15.33 ± 8.52 s
same,Time Swimming,[1]; [3],231.50 ± 28.25 s
same,decrease in immobility time compared to the disease control group,"[1]; fluoxetine 6.5 mg/kg, p<0.01",68.66%
same,increase in swimming time compared to the disease control group,"[1]; fluoxetine 6.5 mg/kg, p<0.01",90.27%
same,paddling time relative to the disease control group,"[1]; fluoxetine 6.5 mg/kg, p>0.05",1.77 times
"filgrastim (protein, UniProt P09919 31-207, looked up, filgrastim) Granulocyte …: TPLGPASSLPQSFLLKCLEQVRKIQGDGAALQEKLVSECATYKLCHPEELVLLGHSLGIPWAPLSSCPSQALQLAGCLSQLHSGLFLYQGLLQALEGISPELGPTLDTLQLDVADFATTIWQQMEELGMAPALQPTQGAMPAFASAFQRRAGGVLVASHLQSFLEVSYRVLRHLAQP",Body weight,"[2]; Day 1, filgrastim 50 μg/kg group, n = 8",19.34 ± 0.97 g
same,Body weight,"[2]; Day 2, filgrastim 50 μg/kg once a day from day 2, n = 8",18.19 ± 1.21 g
same,Body weight,"[2]; Day 3, filgrastim 50 μg/kg once a day from day 2, n = 8",17.64 ± 1.41 g
same,Body weight,"[2]; Day 4, filgrastim 50 μg/kg once a day from day 2, n = 8",17.08 ± 1.52 g
same,Ratio WBCC Lympho,[2]; [4],87.26 ± 4.57 %
same,Ratio WBCC Mono,[2]; [4],7.00 ± 1.91 %
same,Ratio WBCC Neutral,[2]; [4],5.74 ± 2.84 %
same,Volume WBC Lympho,[2]; [4],2.26 ± 0.60**^# 10^9/L
same,Volume WBC Mono,[2]; [4],0.15 ± 0.10**^# 10^9/L
same,Volume WBC Neutral,[2]; [4],0.25 ± 0.13** 10^9/L
same,Volume WBC Total WBC,[2]; [4],2.66 ± 0.73**^# 10^9/L
same,Relative weight of the spleen,[2]; [5],0.16 ± 0.05 % g/g
same,Relative weight of the thymus,[2]; [5],0.06 ± 0.03 % g/g
same,"total white blood cell count, lymphocyte count, monocyte count, proportion of neutrophils and lymphocytes compared to the disease control group","[2]; filgrastim 50 μg/kg subcutaneously, p<0.05",increase
same,weight of the thymus compared to the disease control group,"[2]; filgrastim 50 μg/kg, end of the experiment",remained unchanged

# — US20240299464A1, “BOTANICAL COMPOUNDS, METHODS, AND PROCEDURES FOR MEDICINAL TREATMENT RELATED TO IMMUNOINFLAMMATION, NEUROINFLAMMATION, DEPRESSION, MEMORY, FOCUS, AND NERVE DEGENERATION” (priority 2023, published 2024)
